# According to article PMC6403000:
# Key:
# Assay in all cases: SEC
# [1] = target: CtHsp104 lacking the NTD (residues 153-882) (Calcarisporiella thermophila)
# [2] = target: CtHsp104 lacking the NTD and the CTT (residues 153-864) (Calcarisporiella thermophila)
# [3] = target: CtHsp104 lacking the NTD with mutated Walker B motifs (E275Q:E679Q) (Calcarisporiella thermophila)
# [4] = target: CtHsp104 lacking the NTD with mutated arginine fingers (R328M/R757M) (Calcarisporiella thermophila)
substance,measurement,setting,value
CtHsp104 lacking the NTD (residues 153-882) (domain or fragment),stoichiometry N,[1],6
CtHsp104 lacking the NTD and the CTT (residues 153-864) (domain or fragment),stoichiometry N,[2],6
CtHsp104 lacking the NTD with mutated Walker B motifs (E275Q:E679Q) (domain or fragment),stoichiometry N,[3],6
CtHsp104 lacking the NTD with mutated arginine fingers (R328M/R757M) (domain or fragment),stoichiometry N,[4],6
